Patent publication US20210401931A1, “METHODS AND MATERIALS FOR TREATING CANCER” (Mayo Foundation for Medical Education and Research, priority 2018, published 2021)
Each block holds one molecule with its values, some of them ahead of it.

Legend:
NFκB target genes = assay: Expression of NFκB target genes in PC-3 cells (RNA-seq, RT-qPCR); format: cell-based, human; conditions: PC-3 cells, IKK-16 5 μM or ACHP 20 μM, 24 hours
Protocol: FIGS. 4A-G. RB globally regulates NFkB transcriptional program in cells. […] (F, G) PC-3 cell were treated with or without palbociclib (5 μM) for 24 hours or PC-3 cells were infected with lentivirus expressing control shRNA or RB-specific shRNA following puromycin selection after 48 hours infection. Cells were harvested for RT-qPCR (F) and ChIP-qPCR (G) analysis of p65 binding at the promotor of PD-L1, GADD45B, NR4A2, and CD83. All data were shown as mean values±SD (n=3). * P<0.05, ** P<0.01, ***P<0.001.
FIGS. 16A-K. Mutual exclusivity of PTEN and MAP3K7 gene deletion in human cancers and CDK4/6 inhibition-mediated blockage of MAP3K7 deficiency-induced death of PTEN-null cells. (A) Genetic alterations of MAP3K7 and PTEN genes in the TCGA prostate cancer dataset. (B) Genetic alterations of MAP3K7 and PTEN genes in lymphoid neoplasm diffuse large B-cell lymphoma, stomach adenocarcinoma, pancreatic cancer, liver cancer, bladder urothelial carcinoma, and lung adenocarcinoma. (C-E) PC-3 cells were infected with lentivirus expressing control or MAP3K7-specific shRNAs. 72 hours after infection, cells were harvested for western blotting (C), cell growth assay (D), and colony formation assay (E). All data were shown as mean values±SD (n=3). ns, not significant, * P<0.05 comparing to the shControl group. (F-H) LNCaP-RF prostate cancer cells were infected with lentivirus expressing control or MAP3K7-specific shRNAs. 72 hours after infection, cells were harvested for western blotting (F), cell growth assay (G), and colony formation assay (H). All data are shown as mean values±SD (n=3). ns, not significant, * P<0.05 comparing to the shControl group. (I-K) PC-3 cells were infected with lentivirus expressing control, MAP3K7 or CHD1-specific shRNAs. 72 hours after infection, cells were treated with DMSO or palbociclib (5 μM). […]
FIGS. 17A-I. Negative regulation of MAP3K7-IKK-NFκB and CHD1-NFκB signaling by RB. […] 72 hours after infection and puromycin selection, cells were injected s.c. into the right flank of NSG mice, and tumor growth was measured for 21 days. […]

p65 = target: T1, p65 (Homo sapiens, UniProt Q04206); assay: Co-IP of p65 by SFB-tagged RL peptide in 293T cells; format: binding; conditions: 48 hours after transfection
T1 construct: endogenous in cells; host or cells: 293T
T1 sequence (Q04206 whole entry): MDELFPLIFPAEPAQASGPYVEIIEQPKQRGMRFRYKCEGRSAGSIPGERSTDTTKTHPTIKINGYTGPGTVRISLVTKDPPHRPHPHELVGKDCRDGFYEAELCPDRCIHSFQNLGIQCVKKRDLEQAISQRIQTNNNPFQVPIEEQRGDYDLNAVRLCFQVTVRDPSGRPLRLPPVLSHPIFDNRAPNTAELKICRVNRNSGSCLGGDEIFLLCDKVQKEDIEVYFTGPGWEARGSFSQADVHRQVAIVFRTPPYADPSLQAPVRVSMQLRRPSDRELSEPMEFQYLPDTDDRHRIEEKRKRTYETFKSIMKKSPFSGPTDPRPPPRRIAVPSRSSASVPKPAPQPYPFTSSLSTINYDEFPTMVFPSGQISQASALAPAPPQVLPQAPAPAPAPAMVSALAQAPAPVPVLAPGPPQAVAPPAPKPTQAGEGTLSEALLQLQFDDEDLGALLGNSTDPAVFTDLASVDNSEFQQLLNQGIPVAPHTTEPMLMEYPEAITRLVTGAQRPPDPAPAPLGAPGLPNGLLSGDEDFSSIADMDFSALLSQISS
Protocol: FIGS. 10A-G. (A) Schematic diagram depicting a set of RB-N recombinant protein constructs. Western blot analysis of p65 proteins in PC-3 cells whole cell lysate pulled down by GST or GST-RB-N recombinant proteins. Stars indicate expected molecular weight. (B) Western blot analysis of in vitro transcribed and translated p65 proteins pulled down by GST or GST-RB recombinant proteins. Stars indicate expected molecular weight. (C) Western blot analysis of WCL and co-IP samples in 293T cells 48 h after transfected with indicated constructs. (D) Schematic diagram depicting an evolutionally conserved R-linker region in the N-terminal of RB. FIG. 10D discloses SEQ ID NOS 265 and 271-274, respectively, in order of appearance. (E) Western blot analysis of WCL and co-IP samples in 293T cells 48 hours after transfected with indicated constructs. (F) PC-3 cells were transfected with indicated plasmids. Western blot analysis of HA-RB proteins in PC-3 whole cell lysate pulled down by GST or GST-p65 recombinant proteins. Stars indicate expected molecular weight. (G) Schematic diagram depicting fully positively charged RB-N allows otherwise negatively charged by S249/T252 phosphorylation to bind to negatively charged 166FSLMV170 motif (SEQ ID NO: 286) in EID1. FIG. 10G discloses SEQ ID NOS 265-266 and 275, respectively, in order of appearance. […]

[1] = target: T2, retinoblastoma protein RB (endogenous) (human, UniProt P06400 2-928); assay: co-IP of endogenous proteins in PC-3 cells, western blot (FIG. 2A)
T2 construct: Endogenous protein of cell lysates, phosphorylation state as in the cells; also called RB1; endogenous RB
T2 sequence (looked up): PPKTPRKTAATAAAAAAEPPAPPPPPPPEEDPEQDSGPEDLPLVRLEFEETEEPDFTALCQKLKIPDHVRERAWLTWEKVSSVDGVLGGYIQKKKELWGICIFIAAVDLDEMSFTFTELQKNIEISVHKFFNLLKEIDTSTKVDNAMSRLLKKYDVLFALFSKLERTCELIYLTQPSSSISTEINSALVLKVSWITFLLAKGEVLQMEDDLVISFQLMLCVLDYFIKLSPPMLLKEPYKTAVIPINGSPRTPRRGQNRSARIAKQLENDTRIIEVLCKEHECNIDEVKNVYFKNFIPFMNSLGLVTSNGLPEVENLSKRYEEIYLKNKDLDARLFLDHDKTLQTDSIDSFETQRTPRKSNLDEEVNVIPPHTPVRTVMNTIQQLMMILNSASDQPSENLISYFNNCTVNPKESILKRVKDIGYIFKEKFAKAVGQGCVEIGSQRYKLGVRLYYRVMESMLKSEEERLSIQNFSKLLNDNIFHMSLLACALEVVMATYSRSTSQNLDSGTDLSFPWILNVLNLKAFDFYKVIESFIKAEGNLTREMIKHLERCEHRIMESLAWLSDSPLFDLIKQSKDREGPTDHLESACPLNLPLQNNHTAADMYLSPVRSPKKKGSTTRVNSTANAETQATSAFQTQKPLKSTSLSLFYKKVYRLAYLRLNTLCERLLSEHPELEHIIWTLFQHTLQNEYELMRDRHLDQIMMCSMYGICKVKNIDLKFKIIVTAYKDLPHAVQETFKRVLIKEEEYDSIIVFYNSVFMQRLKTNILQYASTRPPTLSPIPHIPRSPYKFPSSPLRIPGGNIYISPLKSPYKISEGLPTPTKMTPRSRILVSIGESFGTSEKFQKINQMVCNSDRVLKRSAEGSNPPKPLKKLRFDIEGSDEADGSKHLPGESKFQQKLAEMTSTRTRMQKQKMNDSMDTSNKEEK

p65 NFκB protein [2] = target: T3, p65 NFκB protein (human, UniProt Q04206 1-551); assay: co-IP from 293T cells transfected with SFB-tagged constructs (FIG. 10C)
T3 construct: The same entry is used for endogenous p65 and for in vitro translated p65; which one stood in the assay is told under assay; also called endogenous p65; in vitro transcribed and translated p65 (pCMV4 p65)
T3 sequence (Q04206 whole entry): as the sequence (Q04206 whole entry) above

p65 NFκB protein [3] = target: T3, p65 NFκB protein; assay: in vitro protein binding assay with in vitro transcribed and translated p65 (FIG. 10A)
p65 NFκB protein [4] = target: T3, p65 NFκB protein; assay: GST pull down from PC-3 whole cell lysate, western blot
Protocol: Cells were lysed with IP buffer (50 mM Tris-HCl, pH 7.4, 150 mM NaCl, 1% Triton X-100, 1% sodium deoxycholate, and 1% protease inhibitor cocktails) on ice for more than 30 minutes. GST fusion proteins were immobilized on glutathione-Sepharose beads (GE Healthcare Lifesciences). After washing with lysis buffer, the beads were incubated with cell lysates overnight at 4° C. overnight. The beads were then washed six times with binding buffer and re-suspended in sample buffer. The bound proteins were subjected to western blotting analysis.

binding result (p65 NFκB protein [2]): binds
B2: SFB-tagged RB-N (other, human, UniProt P06400 1-379, looked up, not shown: small tags and cut ends)
chain: MPPKTPRKTAATAAAAAAEPPAPPPPPPPEEDPEQDSGPEDLPLVRLEFEETEEPDFTALCQKLKIPDHVRERAWLTWEKVSSVDGVLGGYIQKKKELWGICIFIAAVDLDEMSFTFTELQKNIEISVHKFFNLLKEIDTSTKVDNAMSRLLKKYDVLFALFSKLERTCELIYLTQPSSSISTEINSALVLKVSWITFLLAKGEVLQMEDDLVISFQLMLCVLDYFIKLSPPMLLKEPYKTAVIPINGSPRTPRRGQNRSARIAKQLENDTRIIEVLCKEHECNIDEVKNVYFKNFIPFMNSLGLVTSNGLPEVENLSKRYEEIYLKNKDLDARLFLDHDKTLQTDSIDSFETQRTPRKSNLDEEVNVIPPHTPVRTVM
notes: Expressed in mammalian cells (293T, PANC-1, H1299, SK-Hep1)

binding result (p65 NFκB protein [3]): binds
B3: GST-RB-NΔ1 (N-terminal portion of RB-N, amino acids 1-266) (other, not shown: a dimerising Fc or GST; small tags and cut ends)
chain: MPPKTPRKTAATAAAAAAEPPAPPPPPPPEEDPEQDSGPEDLPLVRLEFEETEEPDFTALCQKLKIPDHVRERAWLTWEKVSSVDGVLGGYIQKKKELWGICIFIAAVDLDEMSFTFTELQKNIEISVHKFFNLLKEIDTSTKVDNAMSRLLKKYDVLFALFSKLERTCELIYLTQPSSSISTEINSALVLKVSWITFLLAKGEVLQMEDDLVISFQLMLCVLDYFIKLSPPMLLKEPYKTAVIPINGSPRTPRRGQNRSARIAKQ

binding result (p65 NFκB protein [4]): no binding
B4: GST-RB-M (other, human, UniProt P06400 380-792, looked up)
chain: NTIQQLMMILNSASDQPSENLISYFNNCTVNPKESILKRVKDIGYIFKEKFAKAVGQGCVEIGSQRYKLGVRLYYRVMESMLKSEEERLSIQNFSKLLNDNIFHMSLLACALEVVMATYSRSTSQNLDSGTDLSFPWILNVLNLKAFDFYKVIESFIKAEGNLTREMIKHLERCEHRIMESLAWLSDSPLFDLIKQSKDREGPTDHLESACPLNLPLQNNHTAADMYLSPVRSPKKKGSTTRVNSTANAETQATSAFQTQKPLKSTSLSLFYKKVYRLAYLRLNTLCERLLSEHPELEHIIWTLFQHTLQNEYELMRDRHLDQIMMCSMYGICKVKNIDLKFKIIVTAYKDLPHAVQETFKRVLIKEEEYDSIIVFYNSVFMQRLKTNILQYASTRPPTLSPIPHIPRSPYKF
notes: domain: RB-M; not shown: glutathione S-transferase (GST) tag of the fusion

Second part, the molecule before the results:

Molecule: O=C(c1ccc(Nc2nccc(-c3cc4ccccc4s3)n2)cc1)N1CCC(N2CCCC2)CC1 [IKK-16]
NFκB target gene expression (NFκB target genes): decreased

Molecule: N#Cc1c(C2CCNCC2)cc(-c2c(O)cccc2OCC2CC2)nc1N [ACHP]
NFκB target gene expression (NFκB target genes): decreased

Molecule: RL-S249A/T252A: unphosphorylable (phosphorylation-resistant) mutant of the RL peptide (NGAPRAPRRGQNRSARIAKQL; left off: small tags and cut ends) [reference compound]
immunoprecipitation of p65 by SFB-tagged RL peptide (p65): largely diminished

B1: p50 subunit of NFκB (other, human, UniProt P19838 1-433, looked up)
chain: MAEDDPYLGRPEQMFHLDPSLTHTIFNPEVFQPQMALPTDGPYLQILEQPKQRGFRFRYVCEGPSHGGLPGASSEKNKKSYPQVKICNYVGPAKVIVQLVTNGKNIHLHAHSLVGKHCEDGICTVTAGPKDMVVGFANLGILHVTKKKVFETLEARMTEACIRGYNPGLLVHPDLAYLQAEGGGDRQLGDREKELIRQAALQQTKEMDLSVVRLMFTAFLPDSTGSFTRRLEPVVSDAIYDSKAPNASNLKIVRMDRTAGCVTGGEEIYLLCDKVQKDDIQIRFYEEEENGGVWEGFGDFSPTDVHRQFAIVFKTPKYKDINITKPASVFVQLRRKSDLETSEPKPFLYYPEIKDKEEVQRKRQKLMPNFSDSFGGGSGAGAGGGGMFGSGGGGGGTGSTGPGYSFPHYGFPTYGGITFHPGTTKSNAGMKHG
binding result [1]: no binding
